# Measurements: publication PMC11014909 (2024)
# B1: GST-Pif1N(56–77) [S. cerevisiae] / Rfa1N(1–132)-4myc [S. cerevisiae] (parent complex)
# chain 1: KHPSILSKEDLDLLSDSDDWEE
# chain 2: MSSVQLSRGDFHSIFTNKQRYDNPTGGVYQVYNTRKSDGANSNRKNLIMISDGIYHMKALLRNQAASKFQSMELQRGDIIRVIIAEPAIVRERKKYVLLVDDFELVQSRADMVNQTSTFLDNYFSEHPNETL
# Variants of: B1
# Experiment: GST pull-down followed by myc-specific western blotting, quantified; n = 3 biological replicates; parent: 0.53; read off a plot
row,response,Variant
1,~0.077 % of input,"chain 1 L11A, chain 1 D12A, chain 1 L13A, chain 1 L14A"
